According to paper PMC3034353:

Legend:
[1] = target: Bacillus stearothermophilus DnaB helicase (B. stearothermophilus) (UniProt Q9X4C9); experiment: AUC
[2] = target: Bacillus subtilis τ protein (wild type) (B. subtilis) (UniProt P09122); experiment: SEC
[3] = target: Bacillus subtilis τ protein L381P mutant (B. subtilis) (UniProt P09122); experiment: SEC
[4] = target: Bacillus subtilis τ protein L381A mutant (B. subtilis) (UniProt P09122); experiment: AUC
[5] = target: Bacillus subtilis τ protein L381A mutant (B. subtilis) (UniProt P09122); experiment: SEC

“Bacillus subtilis τ protein (wild type) (from UniProt P09122 1-563) (natural protein)” gave a stoichiometry N (τ pentamer per DnaB hexamer) [1] of 1 and a stoichiometry N [2] of 4.

“Bacillus subtilis τ protein L381P mutant (from UniProt P09122 1-563) (natural protein)” gave a stoichiometry N [3] of 3.

With “Bacillus subtilis τ protein L381A mutant (from UniProt P09122 1-563) (natural protein)” the stoichiometry N [4] was 4 and the stoichiometry N [5] was 3.
